Data taken from US7947876B2 (Nippon Paper Industries Co., Ltd., priority 2004, dated 2011).
Ends that are not written are not given here.

System: mouse islet
Assay: Thermal stability, activity measured by cAMP generation using mouse islet
Assay type: cell-based
Conditions: 15 min at 100° C.; for stability for thermal treatment (activity by cAMP generation): 10 μg/ml in 0.2% BSA solution, versus non-thermal treated control
Procedure: Further, trypsin treatment was performed, and a monomer GLP-1 derivative was obtained. […] To these thermal treated substances, non-thermal treated substances were prepared similarly as a control. Then, with respect to these substances, the activity was measured by cAMP generation using mouse islet. […] On the other hand, as the synthetic peptide was heat-stable, the 5 linked peptide expressed in rice was estimated to have changed by thermal denaturation to a tertiary structure which would not be easily digested by trypsin.

**Q.** How did the “activity lower than that of non-thermally treated (cAMP generation)” value (rice in distilled water, then extraction and trypsin treatment, FIG. 8) turn out when “[Ser^8,Gln^26, Asn^34]-GLP-1 (HDEFERHSEGTFTSDVSSYLEGQAAQEFIAWLVNGRG; Glucagon-like peptide 1; UniProt P01275 92-128, looked up, variant A8S K26Q K34N)” was run?
**A.** about 33%

**Q.** How did the “stability for thermal treatment (activity by cAMP generation)” value turn out when “[Ser^8,Gln^26, Asn^34]-GLP-1 (HSEGTFTSDVSSYLEGQAAQEFIAWLVNGR; ends and bridges not checked) [synthetic GLP-1 derivative]” was run?
**A.** stable

**Q.** How did the “stability for thermal treatment (activity by cAMP generation)” value turn out when “synthetic native GLP-1: native GLP-1 obtained by synthesis [reference compound]” was run?
**A.** stable
